Columns and labels:
[1] = molecular target: T1, glycoprotein B of HSV-1 (gB-1) (HSV-1, UniProt P10211 31-730); experiment: Luminex multiplex assay on gB-1-conjugated microspheres
Method: The gB-1 binding of the antibodies was determined by Luminex multiplex assay. Mixtures of antigen (gB-1)-conjugated microspheres (1,000 counts each) were added to each well of 96-well filter plates (Millipore). […] Samples were diluted in PBS containing 1% cow milk, 1% BSA, 0.05% Tween 20 and 0.05% NaN₃. After washing, PE goat anti-mouse IgG was added to the plates and incubated for 1 hour at room temperature with mild agitation. After washing, microspheres were resuspended in PBS containing 1% BSA, 0.05% Tween 20 and 0.05% NaN₃ and fluorescent signals from each microsphere were measured in a Bio-Plex® 3D machine.

[2] = molecular target: T1, glycoprotein B of HSV-1 (gB-1); experiment: Luminex bead competition on gB-1; competitor BMPC-23 human IgG at 2 ng/ml

B1: 22D10 (antibody, V domains shown)
VH: DVQLQESGPALVKPSQTVSLTCTVTGYSITNGNHWWNWIRQVSGSKLEWLGYIRSSGSSDSNPSLKSRISITRDTSKNQLFLHLNSMTTEDIATYYCARGGGLRHYFDYWGQGTTLTVSS
VL: DIQMTQSPASLSASVGDTVTITCRASGNIHNYLAWYHQKQGKSPQLLVYHAETLTDGVPSRFSGSGSGTQYSLKINSLQPEDFGSYYCQHFWSTPYTFGGGTKLEIKR
notes: Recombinant mouse IgG (made as IgG1 and IgG2c)
binding result [1]: no binding

B2: HSV010-28 (antibody, V domains shown)
VH: QIQLVQSGPELKKPGETVKISCKASGYTFTTYGMSWVKQAPGKGLKWMGWINTYSGVSTYADDFKGRFAFSLETSASTAYLQINNLKNEDTATYFCAQVNYAMDYWGQGTSVTVSS
VL: DIVMTQSHKFLSTSVGDWVTITCKASQDVSTAVAWFQQKPGQSPKVLIYSASYRYTGVPDRFTGSGSGTDFTFTISSVQAEDLAVYYCQQHYSTPRTFGGGTKLEIKR
notes: Mouse monoclonal IgG
percent inhibition at 222 ng/ml [2]: 30%

B3: 33B8 (antibody, V domains shown)
VH: EVKLVESGGGLVQPGGSLSLSCATSGFTFTDYYMNWVRQPPGKALEWLGFIRNKANGYTTEYSASVKGRFTISRDNSQSILYLQMNSLRAEDSATYYCACGNYVGYAMDYWGQGTSVTVSS
VL: DIVMSQSPSSLAVSAGEKVTMSCKSSQSLLNSRTRKNYLAWYQQKPGQSPKLLIYWASTRESGVPDRFTGSGSGTDFTLTISSVQAEDLAVYYCKQSYNLYTFGGGTKLEIKR
notes: as for B1
binding result [1]: no binding

B4: HSV010-7 (antibody, V domains shown)
VH: QVQLQQSGPELVKPGASVKLSCKASGYTFTNYDINWVKQRPGQGLEWIGWIYPRDGSTKYNEKFKGKATLTIDTSSSTAYMELHSLTSEDSAVYFCARGIFYVNYDVYWGQGTLVTVSA
VL: DIQMTQSSSFLSVSLGGRVTITCKASDHINNWLAWYQQKPGHAPRLLISGAASLETGVPSRFSGSGSGKDYTLTITSLQTEDVATYYCQQYWSSPLTFGGGTKLELKR
notes: Mouse monoclonal IgG
percent inhibition at 222 ng/ml [2]: > 90%

B5: HSV010-34 (antibody, V domains shown)
VH: EVQLVESGGGLVQPGESLKLSCESNEYEFPSHDMSWVRKTPEKRLELVAAINSDGGSTYYPDTMERRFIISRDNTKKTLYLQMSSLRSEDTALYYCARHSSGYVLDYWGQGTSVTVSS
VL: DIQMTQSSSYLSVSLGGRVTITCKASDHINHWLAWYQQKPGNAPRLLISGATSLETGVPSRFSGSGSGKDYTLSIASLQTEDVATYYCQQYWSTPYTFGGGTKLEIKR
notes: Mouse monoclonal IgG
percent inhibition at 222 ng/ml [2]: > 80%

B6: HSV010-4 (antibody, V domains shown)
VH: QVQLKESGPGLVAPSQSLSITCTVSGFSLSRHDVSWVRQPPGKGLEWLGVIWGDGSTNYHSALISRLSISKDNSKSQVFLKLNSLQNDDTATYYCAKEDYGIFPYWGQGTLVTVSA
VL: DIKMTQSPSSMYASLGEKVTITCKASQDISSYLSWFQQKPGKSPKTLIYRANRLVDGVPSRFSGSGSGQDYSLSISSLDYEDMGIYYCLQYDEFPLTFGAGTKLELKR
notes: Mouse monoclonal IgG
percent inhibition at 222 ng/ml [2]: > 95%
